From patent CN113912728A (QYUNS THERAPEUTICS CO LTD, dated 2022)

T1: 人白介素-33 (human interleukin-33) (human, UniProt O95760 112-270)
T1 sequence: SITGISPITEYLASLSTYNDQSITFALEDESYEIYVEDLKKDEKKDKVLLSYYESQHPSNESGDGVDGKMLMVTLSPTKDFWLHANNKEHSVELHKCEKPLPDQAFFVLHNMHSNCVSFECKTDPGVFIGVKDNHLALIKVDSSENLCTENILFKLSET

T2: 天然人白介素-33 (natural human interleukin-33 from HFL-1 cell lysate) (human, UniProt O95760 1-270, limits assumed)
T2 sequence (looked up): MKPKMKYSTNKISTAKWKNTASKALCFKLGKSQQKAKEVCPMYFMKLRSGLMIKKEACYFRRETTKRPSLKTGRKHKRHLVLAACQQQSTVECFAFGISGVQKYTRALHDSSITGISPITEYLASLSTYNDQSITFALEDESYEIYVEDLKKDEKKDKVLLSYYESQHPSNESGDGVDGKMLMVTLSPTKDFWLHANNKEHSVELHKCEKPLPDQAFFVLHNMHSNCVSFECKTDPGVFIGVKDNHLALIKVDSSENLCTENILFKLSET


Legend:
[1] = target: T1, 人白介素-33 (human interleukin-33); experiment: SPR, Biacore T200, 25℃, antibody captured on Protein A chip, IL-33 as analyte, 1:1 model
[2] = target: 天然人白介素-33 (natural human interleukin-33 from HFL-1 cell lysate) (human) (UniProt O95760); experiment: cell-based or functional assay
[3] = target: T1, 人白介素-33 (human interleukin-33); experiment: cell-based or functional assay
[4] = target: T2, 天然人白介素-33 (natural human interleukin-33 …); experiment: cell-based or functional assay

Row | Molecule | Kd [1] | koff [1] | kon [1] | 抑制天然人白介素-33诱导HEK Blue IL-33细胞中NF-κB/AP-1信号转导 (SEAP reporter), IC50 [2] | 中和人白介素-33诱导人全血释放IFN-γ, IC50 [3] | 中和人白介素-33诱导的KU812细胞释放IL-5, IC50 [3] | 抑制重组人白介素-33诱导HEK Blue IL-33细胞中NF-κB/AP-1信号转导 (SEAP reporter), IC50 [3] | 抑制天然人白介素-33诱导HEK Blue IL-33细胞中NF-κB/AP-1信号转导 (SEAP reporter), IC50 [4]
1 | Etokimab/ANB020 (antibody) | 0.869 nM | 0.000369 s⁻¹ | 424000 M⁻¹ s⁻¹ | 2.5 ng/mL | 31.9 ng/mL | 44 ng/mL | 6.05 ng/mL | –
2 | QX007N(HZD78-70) (antibody, V domains shown) VH: EVQLVESGGGLVQPGGSLRLSCAASGFSLSSYHMIWVRQAPGKGLEWVGVIYPNSNIYYATWAKGRFTISRDNSKNTLYLQMNSLRAEDTAVYYCARTIYVHVYSALSIWGQGTLVTVSS VL: AFQMTQSPSSVSASVGDRVTITCQASESVLNEVSWYQQKPGKAPKLLIYFASKLASGVPSRFSGSGSGTDFTLTISSLQPEDFATYYCQQDWSMDNIDNAFGGGTKVEIKR | 1.23 nM | 0.000481 s⁻¹ | 392000 M⁻¹ s⁻¹ | – | 16 ng/mL | 5.87 ng/mL | 6.67 ng/mL | 3.91 ng/mL
